Consider 18 molecules from patent US20160010147, “ENZYME STALLING METHOD” (OXFORD NANOPORE TECHNOLOGIES LIMITED, published 2016).

Series [1] deals with T1, T4 Dda-E94C/A360C helicase (Enterobacteria phage T4, UniProt P32270 SEQ:1-439, E94C/A360C, then (ΔM1)G1G2).
T1 sequence: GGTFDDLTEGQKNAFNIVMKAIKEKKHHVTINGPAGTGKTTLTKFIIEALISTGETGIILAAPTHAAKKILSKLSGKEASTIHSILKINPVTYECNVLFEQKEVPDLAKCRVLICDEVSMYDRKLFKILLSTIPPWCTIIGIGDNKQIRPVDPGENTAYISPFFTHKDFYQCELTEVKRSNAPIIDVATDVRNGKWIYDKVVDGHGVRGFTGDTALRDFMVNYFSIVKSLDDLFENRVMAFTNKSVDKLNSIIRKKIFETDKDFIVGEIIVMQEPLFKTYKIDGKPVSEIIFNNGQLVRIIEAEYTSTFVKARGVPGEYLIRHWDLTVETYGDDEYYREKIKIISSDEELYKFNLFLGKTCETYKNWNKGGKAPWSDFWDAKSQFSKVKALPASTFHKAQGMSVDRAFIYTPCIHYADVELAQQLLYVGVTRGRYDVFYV
Description: EMSA; one enzyme bound only at 312.5-5000 nM; 1 uM DNA; 25 mM phosphate pH 8.0, 151.5 mM KCl. The conditions noted are these: 5' ssDNA overhang with duplex. As for the experimental part: (§1) DNA constructs (1 μM or 100 nM final concentration) detailed below in Table 12 were incubated in appropriate buffer with serially diluted T4 Dda-E94C/A360C. The samples were then loaded on 4-20% TBE gels and run at 160 V for 90 minutes. The gels containing entries 1-6 were then stained using SYBR. […] The length of the region labelled 1 is varied from 2 to 50 to optimise conditions so that it is possible to control the number of T4 Dda-E94C/A360C helicases which can bind to the DNA,

Series [2] has as its target T1, T4 Dda-E94C/A360C helicase. Put plainly: EMSA; unbound DNA only up to 3750 nM; 1 uM DNA. The conditions noted are these: 5' ssDNA overhang with duplex. On the procedure: as §1
The target in series [3] is T1, T4 Dda-E94C/A360C helicase. Description: EMSA; one helicase stalled in at least one buffer with ATP/MgCl2. The conditions noted are these: 50 nt ssDNA overhang with duplex. As for the experimental part:
(§2) The annealed DNA complexes (sequences tested are shown in table 11 below) were mixed in a ratio of (1:1, v/v) with T4 Dda-E94C/A360C in 25 mM phosphate pH 8.0, 200 mM KCl giving final concentrations of T4 Dda-E94C/A360C (2000 nM) and DNA (100 nM). The helicase was allowed to bind to the DNA for 2 hours at ambient temperature. Capture strand (SEQ ID NO: 37, 20 μM) was added to each sample to bind any unbound enzyme and the samples incubated at ambient temperature for 30 mins. Buffer was added to the samples (DNA construct from table 11=50 nM, capture DNA (SEQ ID NO: 37)=10 μM and T4 Dda-E94C/A360C=1000 nM) and they were incubated at ambient temperature for one hour (either Buffer 1=25 mM phosphate pH 8.0, 200 mM KCl, 20 mM MgCl2, 10 mM ATP or Buffer 2=25 mM phosphate pH 8.0, 1 M KCl, 25 mM potassium ferricyanide(III), 75 mM potassium ferrocyanide, 20 mM MgCl2, 10 mM ATP). Loading buffer (25 mM Phosphate pH8.0, 151.5 mM KCl, 25% Glycerol, 125 mM EDTA) is added to each sample to quench the helicase activity. The samples were loaded onto 4-20% TBE gel and the gel run at 160 V for 1.5 hours. The Gel was then stained with SYBR gold in order to observe the DNA bands.
(In general: A gel shift assay detects complexes by their altered migration in electrophoresis.)

Series [4] concerns the target T1, T4 Dda-E94C/A360C helicase. Put plainly: EMSA; up to five helicases bound; one, faintly two, stalled after ATP/MgCl2. The following applies: 50 nt ssDNA overhang with duplex. As for the experimental part: as §2
The target of series [5] is T1, T4 Dda-E94C/A360C helicase. Put plainly: EMSA; up to two enzymes bound; one faint at 169 nM; 100 nM DNA. The conditions noted are these: 5' ssDNA overhang with duplex. On the procedure: as §1
Series [6] concerns the target T1, T4 Dda-E94C/A360C helicase. Put plainly: EMSA; up to five helicases bound; one helicase stalled after ATP/MgCl2. The following applies: 50 nt ssDNA overhang with duplex. As for the experimental part: as §2
Series [7] addresses T1, T4 Dda-E94C/A360C helicase. Description: EMSA; two enzymes bound at 625-5000 nM, one at 312.5 nM; 1 uM DNA. The conditions noted are these: 5' ssDNA overhang with duplex. On the procedure:
as §1

In series [8] the target is T1, T4 Dda-E94C/A360C helicase. Put plainly: EMSA; up to five helicases bound; ATP/MgCl2 gives strand displacement. The following applies: 50 nt ssDNA overhang with duplex. As for the experimental part: as §2
Series [9] deals with T1, T4 Dda-E94C/A360C helicase. Description: EMSA; up to two enzymes bound; unbound only at 169 nM; 100 nM DNA. The conditions noted are these: 5' ssDNA overhang with duplex. On the procedure:
as §1

Series [10] concerns the target T1, T4 Dda-E94C/A360C helicase. Description: EMSA; up to six enzymes bound at 5000 nM; 1 uM DNA. The conditions noted are these: 5' ssDNA overhang with duplex. As for the experimental part: as §1
Series [11] concerns the target T1, T4 Dda-E94C/A360C helicase. Description: EMSA; one helicase bound from 238 nM, two from 475 nM up to 3800 nM; 100 nM DNA. The conditions noted are these: two 10T ssDNA regions. As for the experimental part:
T4 Dda E94C/A360C was buffer exchanged into 25 mM phosphate pH 8.0, 151.5 mM KCl and serially diluted. The helicase and DNA were then mixed (1:1, v/v) with the DNA construct samples 9 and 10 described above (final concentration DNA=100 nM, helicase concentrations investigated=3800 nM, 1900 nM, 950 nM, 475 nM, 238 nM, 0 nM). The DNA and enzyme volumes were then incubated at ambient temperature for 1.5 hours. Dye free loading buffer (5×, 7.5 μL) was added to each sample (30 μL). Each sample (37.5 μL) was then loaded onto 4-20% TBE gel and run at 160 V for 90 minutes. The gel was then stained using SYBR.

B1: Table 12 construct 1 (10T region) (mixed)
DNA 1: TTTTTTTTTTTCGCTGCTCCACAGGTCTCAGCTTGAGCAGCGA
DNA 2: TCGCTGCTCAAGCTGAGACCTGTGGAGCAGCGA
modifications: 5 iSpC3 at 5' end; 4 iSpC3 between SEQ 37 and SEQ 36
For the molecule B1, the binding result in series [1] is reported as “binds”.

B2: Table 12 construct 4 (2T region) (mixed)
DNA 1: TTTCGCTGCTCCACAGGTCTCAGCTTGAGCAGCGA
DNA 2: TCGCTGCTCAAGCTGAGACCTGTGGAGCAGCGA
modifications: 5 iSpC3 at 5' end; 4 iSpC3 between TT and SEQ 36
As to B2, the binding result in series [2] is reported as “no binding”.

B3: Table 12 construct 5 (4T region) (mixed)
DNA 1: TTTTTCGCTGCTCCACAGGTCTCAGCTTGAGCAGCGA
DNA 2: TCGCTGCTCAAGCTGAGACCTGTGGAGCAGCGA
modifications: 5 iSpC3 at 5' end; 4 iSpC3 between T4 and SEQ 36
For B3, the binding result in [2] is reported as “no binding”.

B4: Table 11 construct 5 (1 iSp18) (mixed)
DNA 1: TTTTTTTTTTTTTTTTTTTTTTTTTTTTTTTTTTTTTTTTTTTTTTTTTTTCGCTGCTCCACAGGTCTCAGCTTGAGCAGCGA
DNA 2: TCGCTGCTCAAGCTGAGACCTGTGGAGCAGCGA
modifications: 1 iSp18 between SEQ 9 and SEQ 36
As for B4, the binding result in [3] was “binds”.

B5: Table 11 construct 9 (5 iSp18) (mixed)
DNA 1: TTTTTTTTTTTTTTTTTTTTTTTTTTTTTTTTTTTTTTTTTTTTTTTTTTTCGCTGCTCCACAGGTCTCAGCTTGAGCAGCGA
DNA 2: TCGCTGCTCAAGCTGAGACCTGTGGAGCAGCGA
modifications: 5 iSp18 between SEQ 9 and SEQ 36
In the case of B5, the binding result in [4] was “binds”.

B6: Table 12 construct 7 (16T region) (mixed)
DNA 1: TTTTTTTTTTTTTTTTTCGCTGCTCCACAGGTCTCAGCTTGAGCAGCGA
DNA 2: TCGCTGCTCAAGCTGAGACCTGTGGAGCAGCGA
modifications: 5 iSpC3 at 5' end; 4 iSp18 between SEQ 39 and SEQ 36
In the case of B6, the binding result in [5] is reported as “binds”.

B7: Table 11 construct 7 (3 iSp18) (mixed)
DNA 1: TTTTTTTTTTTTTTTTTTTTTTTTTTTTTTTTTTTTTTTTTTTTTTTTTTTCGCTGCTCCACAGGTCTCAGCTTGAGCAGCGA
DNA 2: TCGCTGCTCAAGCTGAGACCTGTGGAGCAGCGA
modifications: 3 iSp18 between SEQ 9 and SEQ 36
Turning to B7, the binding result in series [6] was “binds”.

B8: Table 11 construct 6 (2 iSp18) (mixed)
DNA 1: TTTTTTTTTTTTTTTTTTTTTTTTTTTTTTTTTTTTTTTTTTTTTTTTTTTCGCTGCTCCACAGGTCTCAGCTTGAGCAGCGA
DNA 2: TCGCTGCTCAAGCTGAGACCTGTGGAGCAGCGA
modifications: 2 iSp18 between SEQ 9 and SEQ 36
Take B8: in series [3], the binding result is recorded as “binds”.

B9: Table 12 construct 2 (20T region) (mixed)
DNA 1: TTTTTTTTTTTTTTTTTTTTTCGCTGCTCCACAGGTCTCAGCTTGAGCAGCGA
DNA 2: TCGCTGCTCAAGCTGAGACCTGTGGAGCAGCGA
modifications: 5 iSpC3 at 5' end; 4 iSpC3 between SEQ 38 and SEQ 36
In the case of B9, in series [7], the binding result is given as “binds”.

B10: Table 11 construct 4 (12 iSpC3) (mixed)
DNA 1: TTTTTTTTTTTTTTTTTTTTTTTTTTTTTTTTTTTTTTTTTTTTTTTTTTTCGCTGCTCCACAGGTCTCAGCTTGAGCAGCGA
DNA 2: TCGCTGCTCAAGCTGAGACCTGTGGAGCAGCGA
modifications: 12 iSpC3 between SEQ 9 and SEQ 36
For B10, in series [3], the binding result was “binds”.

B11: Table 11 construct 1 (no spacers) (mixed)
DNA 1: TTTTTTTTTTTTTTTTTTTTTTTTTTTTTTTTTTTTTTTTTTTTTTTTTTTCGCTGCTCCACAGGTCTCAGCTTGAGCAGCGA
DNA 2: TCGCTGCTCAAGCTGAGACCTGTGGAGCAGCGA
Regarding B11, the binding result in [8] was “binds”.

B12: Table 11 construct 3 (8 iSpC3) (mixed)
DNA 1: TTTTTTTTTTTTTTTTTTTTTTTTTTTTTTTTTTTTTTTTTTTTTTTTTTTCGCTGCTCCACAGGTCTCAGCTTGAGCAGCGA
DNA 2: TCGCTGCTCAAGCTGAGACCTGTGGAGCAGCGA
modifications: 8 iSpC3 between SEQ 9 and SEQ 36
Take B12: the binding result in series [3] was “binds”.

B13: Table 11 construct 8 (4 iSp18) (mixed)
DNA 1: TTTTTTTTTTTTTTTTTTTTTTTTTTTTTTTTTTTTTTTTTTTTTTTTTTTCGCTGCTCCACAGGTCTCAGCTTGAGCAGCGA
DNA 2: TCGCTGCTCAAGCTGAGACCTGTGGAGCAGCGA
modifications: 4 iSp18 between SEQ 9 and SEQ 36
Consider B13, for which the binding result in series [4] is listed as “binds”.

B14: Table 12 construct 8 (18T region) (mixed)
DNA 1: TTTTTTTTTTTTTTTTTTTCGCTGCTCCACAGGTCTCAGCTTGAGCAGCGA
DNA 2: TCGCTGCTCAAGCTGAGACCTGTGGAGCAGCGA
modifications: 5 iSpC3 at 5' end; 4 iSp18 between SEQ 40 and SEQ 36
In the case of B14, in [9], the binding result was “binds”.

B15: Table 11 construct 2 (4 iSpC3) (mixed)
DNA 1: TTTTTTTTTTTTTTTTTTTTTTTTTTTTTTTTTTTTTTTTTTTTTTTTTTTCGCTGCTCCACAGGTCTCAGCTTGAGCAGCGA
DNA 2: TCGCTGCTCAAGCTGAGACCTGTGGAGCAGCGA
modifications: 4 iSpC3 between SEQ 9 and SEQ 36
In the case of B15, the binding result in series [3] is given as “binds”.

B16: Table 12 construct 3 (50T region) (mixed)
DNA 1: TTTTTTTTTTTTTTTTTTTTTTTTTTTTTTTTTTTTTTTTTTTTTTTTTTTCGCTGCTCCACAGGTCTCAGCTTGAGCAGCGA
DNA 2: TCGCTGCTCAAGCTGAGACCTGTGGAGCAGCGA
modifications: 5 iSpC3 at 5' end; 4 iSpC3 between SEQ 9 and SEQ 36
On to B16, for which, in series [10], the binding result is reported as “binds”.

B17: Table 16 construct 9 (non-forked) (mixed)
DNA 1: TTTTTTTTTTTTTTTTTTTTGGTTGTTTCTGTTGGTGCTGATATTGCGCCATCAGATTGTGTTTGTTAGTCGCT
DNA 2: GCAATATCAGCACCAACAGAAACAACC
DNA 3: AGCGACTAACAAACACAATCTGATGGC
modifications: 25 SpC3 at 5' end; 2 iSp18 after each SEQ 37; 4 nitroindoles between SEQ 10 and SEQ 41
For B17, the binding result in series [11] (two duplexes) was “binds”.

B18: Table 16 construct 10 (forked) (mixed)
DNA 1: TTTTTTTTTTTTTTTTTTTTGGTTGTTTCTGTTGGTGCTGATATTGCGCCATCAGATTGTGTTTGTTAGTCGCT
DNA 2: GCAATATCAGCACCAACAGAAACAACCT
DNA 3: AGCGACTAACAAACACAATCTGATGGC
modifications: 25 SpC3 at 5' end; 2 iSp18 after each SEQ 37; 4 nitroindoles between SEQ 10 and SEQ 41; 6 iSp18 at 3' end of SEQ 12
As for B18, the binding result in [11] (forked duplex) was “binds”.
